Test results reported in US20250121081A1 (JIANGSU HENGRUI PHARMACEUTICALS, published 2025).

Columns and labels:
[1] = biological target: T1, human ROR1 on cells (ROR1-CHO-K1, Jeko-1, MDA-MB-231, HCC827/ROR1) (human, UniProt Q01973 30-937); test: cell-based or functional assay
[2] = biological target: T2, human ROR1 (Cat. #19771-H08H, Sino Biological) antigen (human, UniProt Q01973 30-403); test: SPR (Biacore T200), IgG captured on Protein A chip, human ROR1 as analyte, 1:1 model
T2 construct: Bought soluble antigen used as SPR analyte
T2 sequence (Q01973 30-403 limits assumed): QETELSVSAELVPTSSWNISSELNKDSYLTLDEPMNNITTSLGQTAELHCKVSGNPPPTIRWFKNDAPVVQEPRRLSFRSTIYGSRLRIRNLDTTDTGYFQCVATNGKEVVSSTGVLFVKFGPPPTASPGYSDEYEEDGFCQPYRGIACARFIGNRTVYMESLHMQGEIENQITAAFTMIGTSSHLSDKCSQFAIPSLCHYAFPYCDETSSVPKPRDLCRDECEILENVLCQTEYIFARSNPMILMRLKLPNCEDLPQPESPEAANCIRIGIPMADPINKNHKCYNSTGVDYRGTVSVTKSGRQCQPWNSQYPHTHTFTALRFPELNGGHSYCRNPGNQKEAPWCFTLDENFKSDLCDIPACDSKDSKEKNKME
Procedure: (§1) The anti-ROR1 antibody was analyzed by Biacore T200 (Cytiva) for affinity characterization and binding kinetics. The IgG antibody was subjected to affinity capture by a Protein A biosensor chip (Cat. #29127556, Cytiva), and then a human ROR1 (Cat. #19771-H08H, Sino Biological) antigen that was diluted with the HBS-EP buffer (pH 7.4, Cat. #BR-1006-69, Cytiva) to a series of concentrations was allowed to flow over the surface of the chip. The antigen-antibody binding kinetics was tracked for 3 min and the dissociation kinetics was tracked for 10 min. Reaction signals were detected in real time using a Biacore T200 instrument to obtain binding and dissociation curves. After dissociation was complete in each cycle, the biosensor chip was washed with 10 mM Gly-HCl at pH 1.5 (Cat. #BR-1003-54, Cytiva) for regeneration. The data obtained were analyzed with BIAevaluation software of Cytiva using a 1:1 (Langmuir) binding model.

[3] = biological target: T1, human ROR1 on cells (ROR1-CHO-K1, …); test: cell-based or functional assay; remark: listed apart in the source
[4] = biological target: T1, human ROR1 on cells (ROR1-CHO-K1, …); test: flow cytometry on MDA-MB-231 cells
Procedure: (§2) ROR1-CHO-K1 cells (Example 1), Jeko-1 cells (ATCC, CRL-3006), or MDA-MB-231 cells (ATCC, CRM-HTB-26) were separately suspended in a FACS buffer (2% fetal bovine serum (Gibco, 10099141) and PBS at pH 7.4 (Sigma, P4417-100TAB) to prepare a cell suspension at 1× 10⁶ cells/mL, and the suspension was then added to a 96-well round-bottom plate at 100 μL/well. After centrifugation and removal of the supernatant, the test antibody that was diluted with the FACS buffer to different concentrations was added at 50 μL/well. The plate was incubated in the dark in a 4° C. refrigerator for 1 h. The plate was washed 3 times with the FACS buffer by centrifugation at 500 g, and a fluorescent secondary antibody at a working concentration was added. The plate was incubated in the dark in the 4° C. refrigerator for 40 min. The plate was washed 3 times with the FACS buffer by centrifugation at 500 g and tested on a BD FACSCantoII flow cytometer for geometric mean fluorescence intensity, and the EC₅₀ values for the binding of the antibody to the cells expressing ROR1 were calculated.

[5] = biological target: T1, human ROR1 on cells (ROR1-CHO-K1, …); test: flow cytometry on Jeko-1 cells
Procedure: as §2

[6] = biological target: T3, mouse ROR1-His (Cat. #RO1-M522, Acro) antigen (mouse, UniProt Q9Z139 30-403); test: SPR (Biacore T200), IgG captured on Protein A chip, mouse ROR1-His as analyte, 1:1 model
T3 construct: Bought His-tagged antigen; not shown: His tag
T3 sequence (Q9Z139 30-403 limits assumed): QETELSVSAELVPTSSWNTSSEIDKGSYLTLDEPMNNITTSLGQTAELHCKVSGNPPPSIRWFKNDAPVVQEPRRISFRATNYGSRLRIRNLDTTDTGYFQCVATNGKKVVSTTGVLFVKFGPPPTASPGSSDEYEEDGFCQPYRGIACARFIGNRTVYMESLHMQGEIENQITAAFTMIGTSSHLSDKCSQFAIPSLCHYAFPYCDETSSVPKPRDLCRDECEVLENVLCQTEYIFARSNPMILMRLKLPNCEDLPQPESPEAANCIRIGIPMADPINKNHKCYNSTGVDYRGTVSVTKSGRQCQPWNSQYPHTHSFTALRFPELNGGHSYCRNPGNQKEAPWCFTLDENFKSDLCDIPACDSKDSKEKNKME
Procedure: as §1, with “a mouse ROR1-His” for “a human ROR1”, “(Cat. #RO1-M522, Acro) antigen and a rat ROR1-His (Cat. #RO1-R5221, Acro)” for “(Cat. #19771-H08H, Sino Biological)”, “that were” for “that was”, “concentrations were” for “concentrations was”, “for 15” for “for 10”

[7] = biological target: T4, rat ROR1-His (Cat. #RO1-R5221, Acro) antigen (rat, UniProt D3ZZ97 30-406); test: SPR (Biacore T200), IgG captured on Protein A chip, rat ROR1-His as analyte, 1:1 model
T4 construct: Bought His-tagged antigen; not shown: His tag
Procedure: as §1, with “a mouse ROR1-His” for “a human ROR1”, “(Cat. #RO1-M522, Acro) antigen and a rat ROR1-His (Cat. #RO1-R5221, Acro)” for “(Cat. #19771-H08H, Sino Biological)”, “that were” for “that was”, “concentrations were” for “concentrations was”, “for 15” for “for 10”

[8] = biological target: T1, human ROR1 on cells (ROR1-CHO-K1, …); test: flow cytometry on ROR1-CHO-K1 cells
Procedure: as §2

[9] = biological target: T3, mouse ROR1-His (Cat. #RO1-M522, Acro) …; test: SPR (Biacore T200), IgG captured on Protein A chip, antigen as analyte
Procedure: as §1, with “a mouse ROR1-His” for “a human ROR1”, “(Cat. #RO1-M522, Acro) antigen and a rat ROR1-His (Cat. #RO1-R5221, Acro)” for “(Cat. #19771-H08H, Sino Biological)”, “that were” for “that was”, “concentrations were” for “concentrations was”, “for 15” for “for 10”

[10] = biological target: T4, rat ROR1-His (Cat. #RO1-R5221, Acro) …; test: as above
Procedure: as §1, with “a mouse ROR1-His” for “a human ROR1”, “(Cat. #RO1-M522, Acro) antigen and a rat ROR1-His (Cat. #RO1-R5221, Acro)” for “(Cat. #19771-H08H, Sino Biological)”, “that were” for “that was”, “concentrations were” for “concentrations was”, “for 15” for “for 10”

T1 sequence (Q01973 30-937 limits assumed): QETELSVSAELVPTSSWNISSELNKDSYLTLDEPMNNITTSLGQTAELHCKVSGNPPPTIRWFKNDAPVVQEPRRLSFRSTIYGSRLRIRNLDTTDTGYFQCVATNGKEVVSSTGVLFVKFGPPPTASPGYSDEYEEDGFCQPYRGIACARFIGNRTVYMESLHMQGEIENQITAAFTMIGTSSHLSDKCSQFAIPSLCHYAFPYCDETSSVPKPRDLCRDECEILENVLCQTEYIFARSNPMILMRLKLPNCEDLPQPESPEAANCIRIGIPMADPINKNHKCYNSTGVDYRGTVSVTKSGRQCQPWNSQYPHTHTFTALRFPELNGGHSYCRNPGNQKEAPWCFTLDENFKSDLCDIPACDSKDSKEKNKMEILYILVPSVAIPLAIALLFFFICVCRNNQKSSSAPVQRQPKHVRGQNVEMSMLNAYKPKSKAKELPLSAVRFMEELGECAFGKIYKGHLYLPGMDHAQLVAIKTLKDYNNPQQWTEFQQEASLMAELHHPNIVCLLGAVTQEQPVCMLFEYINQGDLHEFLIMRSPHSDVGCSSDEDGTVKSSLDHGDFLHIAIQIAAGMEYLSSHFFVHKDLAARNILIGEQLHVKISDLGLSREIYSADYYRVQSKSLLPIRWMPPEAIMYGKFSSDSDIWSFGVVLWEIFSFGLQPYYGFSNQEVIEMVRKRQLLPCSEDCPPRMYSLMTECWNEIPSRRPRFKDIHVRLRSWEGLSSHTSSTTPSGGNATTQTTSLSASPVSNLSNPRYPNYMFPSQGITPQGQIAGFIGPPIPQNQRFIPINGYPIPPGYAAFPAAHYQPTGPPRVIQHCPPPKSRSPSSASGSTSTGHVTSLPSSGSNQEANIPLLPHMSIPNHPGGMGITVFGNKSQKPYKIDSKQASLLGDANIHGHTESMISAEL

| Kd [2] [nM] | koff [2] [s⁻¹] | kon [2] [M⁻¹ s⁻¹] | Binder | IC50 (nM), killing of HCC827/ROR1 (+++) cells [1] [nM] | IC50 (nM), killing of Jeko-1 (+) cells [1] [nM] | IC50 (nM), killing of MDA-MB-231 (+) cells [1] [nM] | also measured |
| --- | --- | --- | --- | --- | --- | --- | --- |
|  |  |  | ADC-5 (antibody 347 conjugated to compound 9A, n=3.99) (antibody, human IgG1, kappa, V domains shown, linker-drug compound 9A conjugated after TCEP reduction; average drug loading n=3.99 per antibody; sites not stated) VH: QVQLVQSGAEVKKPGSSVKVSCKASGYTFTDYYISWVRQGPGQGLEWMGGINAGNGNTNYAQKFQGRVTITADESTSTAYMELSSLRSEDTAVYYCASPGWDVFDIWGQGTMVTVSS VL: DIQMTQSPSPLSASVGDRVTITCQASQDISNYLNWYQQKPGKAPKLLIYDASNLETGVPSRFSGSGSGTDFTFTISSLQPEDIATYYCQQHEDLPITFGQGTRLEIKR | 4.36 | 58.1 | 349 |  |
|  |  |  | ADC-4 (antibody 347 conjugated to compound 9A, n=7.39) (antibody, human IgG1, kappa, V domains shown, linker-drug compound 9A conjugated after TCEP reduction; average drug loading n=7.39 per antibody; sites not stated) VH: QVQLVQSGAEVKKPGSSVKVSCKASGYTFTDYYISWVRQGPGQGLEWMGGINAGNGNTNYAQKFQGRVTITADESTSTAYMELSSLRSEDTAVYYCASPGWDVFDIWGQGTMVTVSS VL: DIQMTQSPSPLSASVGDRVTITCQASQDISNYLNWYQQKPGKAPKLLIYDASNLETGVPSRFSGSGSGTDFTFTISSLQPEDIATYYCQQHEDLPITFGQGTRLEIKR | 1.36 | 17.4 | 146 |  |
| 1.18 | 0.00273 | 2.31e+06 | fully human ROR1 antibody 347 (antibody, human IgG1, kappa, V domains shown, Full-length human IgG1/kappa) VH: QVQLVQSGAEVKKPGSSVKVSCKASGYTFTDYYISWVRQGPGQGLEWMGGINAGNGNTNYAQKFQGRVTITADESTSTAYMELSSLRSEDTAVYYCASPGWDVFDIWGQGTMVTVSS VL: DIQMTQSPSPLSASVGDRVTITCQASQDISNYLNWYQQKPGKAPKLLIYDASNLETGVPSRFSGSGSGTDFTFTISSLQPEDIATYYCQQHEDLPITFGQGTRLEIKR |  |  |  | IC50 (nM) (DT3C endocytosis killing on ROR1-CHOK1) [3]: 0.596 nM; EC50 [4]: 0.094 nM; EC50 [5]: 0.098 nM; Kd [6]: 0.238 nM; koff [6]: 0.000676 s⁻¹; kon [6]: 2.84e+06 M⁻¹ s⁻¹; Kd [7]: 0.0315 nM; koff [7]: 0.00115 s⁻¹; kon [7]: 3.66e+07 M⁻¹ s⁻¹; EC50 [8]: 0.502 nM |
| 91 | 0.0546 | 600000 | anti-ROR1 antibody Ab1 in WO2018237335 (positive control) (antibody, human IgG1, kappa, V domains shown, Positive control antibody; also called Abl) VH: QVQLQESGPGLVKPSQTLSLTCTVSGYAFTAYNIHWVRQAPGQGLEWMGSFDPYDGGSSYNQKFKDRLTISKDTSKNQVVLTMTNMDPVDTATYYCARGWYYFDYWGHGTLVTVSS VL: DIVMTQTPLSLPVTPGEPASISCRASKSISKYLAWYQQKPGQAPRLLIYSGSTLQSGIPPRFSGSGYGTDFTLTINNIESEDAAYYFCQQHDESPYTFGEGTKVEIKR |  |  |  | binding result [9]: no binding; binding result [10]: no binding |
